# Experimental data: publication PMC6025902 (Science Advances, 2018)
# Biological target: monomeric amyloid-β peptide 1–42 (Aβ42) (human, UniProt P05067 672-713)
# Test: ITC
binder,measurement,value
S100B protein (natural protein) MSELEKAMVALIDVFHQYSGREGDKHKLKKSELKELINNELSHFLEEIKEQEVVDKVMETLDNDGDGECDFQEFMAFVAMVTTACHEFFEHE,Kd,590 ± 230 nM
same,dH,-0.947 ± 0.0295 kcal/mol
same,stoichiometry N,2.37 ± 0.07
